Measurements reported in patent US20130136748A1 (Ablynx, published 2013).
Substitutions are numbered along the chain they refer to. Names and notes keep the numbering of the source. Values joined by “and” are separate entries in the source; they are usually repeats but may differ in a detail not shown here. Equal entries are not always repeated. Blank lines part the entries; values can stand above or below the binder they belong to.

Experiments:
[1] = biological target: T1, human HER3-Fc (R&D Systems, 348-RB) (human, UniProt P21860 20-643); assay: 18G11 competition alphascreen
T1 construct: Bought; also called hHER3-Fc; Fc-HER3; Fc part of the bought chimera not given, not described

[2] = biological target: T2, hHER3 ECD (human HER3 extracellular domain) (human, UniProt P21860 20-643); assay: SPR off rate
T2 construct: also called recombinant HER3-ECD

hHER3 full length [3] = biological target: T3, hHER3 full length (human, UniProt P21860 20-1342); assay: cell-based or functional assay
human HER2 [4] = biological target: T4, human HER2 (human, UniProt P04626 23-1255); assay: FACS CHO-HER2, 2000 nM
T4 construct: also called hHER2

[5] = biological target: T1, human HER3-Fc (R&D Systems, 348-RB); assay: HRG competition alphascreen
hHER3 full length [6] = biological target: T3, hHER3 full length; assay: cell-based or functional assay; remark: listed apart in the source
hHER3 full length [7] = biological target: T3, hHER3 full length; assay: FACS, 400 nM, competitor 23F05-biotin
human HER2 [8] = biological target: T4, human HER2; assay: FACS, CHO-HER2
human HER2 [9] = biological target: T4, human HER2; assay: FACS CHO-HER2, 222 nM
human HER1 [10] = biological target: T5, human HER1 (human, UniProt P00533 25-1210); assay: FACS, CHO-HER1
T5 construct: also called EGFR; ErbB1

human HER2 [11] = biological target: T4, human HER2; assay: FACS CHO-HER2, 667 nM
human HER4 [12] = biological target: T6, human HER4 (human, UniProt Q15303 26-1308); assay: FACS CHO-HER4, 222 nM
hHER3 full length [13] = biological target: T3, hHER3 full length; assay: cell-based or functional assay; remark: listed apart in the source
human HER1 [14] = biological target: T5, human HER1; assay: FACS CHO-HER1, 222 nM
hHER3 full length [15] = biological target: T3, hHER3 full length; assay: FACS, 400 nM, competitor 04C07-biotin
hHER3 full length [16] = biological target: T3, hHER3 full length; assay: FACS, 400 nM, competitor 17C08-biotin
hHER3 full length [17] = biological target: T3, hHER3 full length; assay: cell-based or functional assay; remark: listed apart in the source
[18] = biological target: T2, hHER3 ECD (human HER3 extracellular …); assay: ELISA, coated hHER3-ECD
[19] = biological target: T1, human HER3-Fc (R&D Systems, 348-RB); assay: HRG competition alphascreen; remark: listed apart in the source
human HER4 [20] = biological target: T6, human HER4; assay: FACS, CHO-HER4
human HER1 [21] = biological target: T5, human HER1; assay: FACS CHO-HER1, 667 nM
[22] = biological target: T7, Chicken Her3 (AA1-25 human, AA26-642 chicken) (chicken (human signal sequence)); assay: FACS, HEK293 with chicken HER3
T7 construct: Transmembrane and extracellular regions only, on transiently transfected HEK293 cells; also called full length extracellular chicken HER3
T7 chain: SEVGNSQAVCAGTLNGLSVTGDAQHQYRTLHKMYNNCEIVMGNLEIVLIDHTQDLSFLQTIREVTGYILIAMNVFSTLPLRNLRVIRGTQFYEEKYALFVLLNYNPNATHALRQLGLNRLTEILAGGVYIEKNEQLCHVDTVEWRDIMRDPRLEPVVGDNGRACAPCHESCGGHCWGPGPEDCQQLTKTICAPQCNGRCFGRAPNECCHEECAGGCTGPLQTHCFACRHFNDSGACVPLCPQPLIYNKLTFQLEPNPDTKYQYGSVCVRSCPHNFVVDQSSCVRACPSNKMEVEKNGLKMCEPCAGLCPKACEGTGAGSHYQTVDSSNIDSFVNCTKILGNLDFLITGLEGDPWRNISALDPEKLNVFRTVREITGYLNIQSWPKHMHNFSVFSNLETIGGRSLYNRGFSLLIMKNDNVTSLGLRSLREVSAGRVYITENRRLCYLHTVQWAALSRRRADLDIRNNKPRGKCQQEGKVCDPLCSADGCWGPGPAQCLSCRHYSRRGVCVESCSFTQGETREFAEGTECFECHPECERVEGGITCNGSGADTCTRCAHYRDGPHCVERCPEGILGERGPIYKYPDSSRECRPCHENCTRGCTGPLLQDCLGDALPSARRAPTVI

human HER4 [23] = biological target: T6, human HER4; assay: FACS CHO-HER4, 667 nM
human HER4 [24] = biological target: T6, human HER4; assay: FACS CHO-HER4, 2000 nM
[25] = biological target: T8, cHER3ECD (Maccaca fascicularis HER3 extracellular domain) (Macaca fascicularis, UniProt P21860 20-643 (human entry)); assay: ELISA, coated cHER3-ECD
T8 construct: also called cyno HER3ECD; cyno HER3-ECD
T8 chain: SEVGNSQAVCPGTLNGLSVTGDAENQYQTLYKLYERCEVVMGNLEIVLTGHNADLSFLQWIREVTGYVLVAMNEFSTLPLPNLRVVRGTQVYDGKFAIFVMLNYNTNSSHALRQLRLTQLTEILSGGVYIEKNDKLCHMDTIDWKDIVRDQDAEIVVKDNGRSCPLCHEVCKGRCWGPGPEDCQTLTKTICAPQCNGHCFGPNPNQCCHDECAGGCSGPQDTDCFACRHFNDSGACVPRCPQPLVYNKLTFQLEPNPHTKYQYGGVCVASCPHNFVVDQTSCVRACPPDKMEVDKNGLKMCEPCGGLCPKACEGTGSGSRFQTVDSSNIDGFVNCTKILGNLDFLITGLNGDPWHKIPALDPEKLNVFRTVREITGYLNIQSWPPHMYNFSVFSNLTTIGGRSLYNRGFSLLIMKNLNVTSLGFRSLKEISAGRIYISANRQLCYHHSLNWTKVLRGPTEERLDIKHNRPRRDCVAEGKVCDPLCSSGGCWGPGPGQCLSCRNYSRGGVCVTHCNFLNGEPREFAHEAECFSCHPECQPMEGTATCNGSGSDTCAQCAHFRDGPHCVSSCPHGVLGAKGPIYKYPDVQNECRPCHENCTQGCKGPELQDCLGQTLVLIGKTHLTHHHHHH

human HER1 [26] = biological target: T5, human HER1; assay: FACS CHO-HER1, 2000 nM
hHER3 full length [27] = biological target: T3, hHER3 full length; assay: FACS, 400 nM, competitor 04F10-biotin
hHER3 full length [28] = biological target: T3, hHER3 full length; assay: FACS, 400 nM, competitor 21B02-biotin
hHER3 full length [29] = biological target: T3, hHER3 full length; assay: FACS competition with HRG1-β1-EGF, CHO-HER3
[30] = biological target: T1, human HER3-Fc (R&D Systems, 348-RB); assay: SPR, HER3-Fc captured by anti-Fc

T6 sequence (Q15303 26-1308 limits assumed): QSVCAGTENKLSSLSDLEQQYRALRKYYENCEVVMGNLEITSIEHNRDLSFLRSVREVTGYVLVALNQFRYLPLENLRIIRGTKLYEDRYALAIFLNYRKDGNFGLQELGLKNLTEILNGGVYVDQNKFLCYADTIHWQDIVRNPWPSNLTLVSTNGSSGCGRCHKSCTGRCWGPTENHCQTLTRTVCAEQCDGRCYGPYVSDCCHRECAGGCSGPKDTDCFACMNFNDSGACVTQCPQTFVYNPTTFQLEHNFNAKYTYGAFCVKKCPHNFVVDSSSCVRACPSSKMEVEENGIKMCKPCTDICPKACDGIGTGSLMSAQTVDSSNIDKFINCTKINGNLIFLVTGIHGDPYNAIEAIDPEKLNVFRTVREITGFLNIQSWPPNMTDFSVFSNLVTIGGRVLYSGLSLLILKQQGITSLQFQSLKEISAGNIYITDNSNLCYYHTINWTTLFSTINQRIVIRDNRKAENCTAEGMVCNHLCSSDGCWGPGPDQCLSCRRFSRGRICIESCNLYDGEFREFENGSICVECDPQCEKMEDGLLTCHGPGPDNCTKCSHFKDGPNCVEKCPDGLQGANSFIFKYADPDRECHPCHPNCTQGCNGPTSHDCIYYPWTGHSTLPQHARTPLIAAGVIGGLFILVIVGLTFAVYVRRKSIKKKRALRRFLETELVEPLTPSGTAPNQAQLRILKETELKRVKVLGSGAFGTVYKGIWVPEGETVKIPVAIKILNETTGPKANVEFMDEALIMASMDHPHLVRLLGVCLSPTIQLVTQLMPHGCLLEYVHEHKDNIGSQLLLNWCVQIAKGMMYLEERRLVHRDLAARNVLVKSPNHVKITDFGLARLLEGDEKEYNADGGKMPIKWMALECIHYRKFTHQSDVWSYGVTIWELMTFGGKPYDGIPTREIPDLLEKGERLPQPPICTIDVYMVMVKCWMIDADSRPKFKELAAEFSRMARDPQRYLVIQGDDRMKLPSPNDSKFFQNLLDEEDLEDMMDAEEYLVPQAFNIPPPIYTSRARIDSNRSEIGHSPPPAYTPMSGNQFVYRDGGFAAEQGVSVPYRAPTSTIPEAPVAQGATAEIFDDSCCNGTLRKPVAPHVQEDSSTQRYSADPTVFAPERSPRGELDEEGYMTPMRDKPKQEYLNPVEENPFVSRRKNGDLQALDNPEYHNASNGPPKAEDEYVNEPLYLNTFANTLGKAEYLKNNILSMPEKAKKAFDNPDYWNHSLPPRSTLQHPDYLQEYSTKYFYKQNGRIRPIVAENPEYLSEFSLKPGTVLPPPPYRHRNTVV

IC50 [1]: 5.4 nM
koff [2]: 0.00072 s⁻¹
IC50 pHER3 blocking, HRG stimulated MCF7 (hHER3 full length [3]): 1.79e-08 M and 2e-08 M
B1: HER3MS00211 (VHH)
VHH: EVQLVESGGGLVQPGGSLRLSCAASGTLFKINAMGWYRQAPGKRRELVALITSSDTTDYADSVKGRFTISRDNSWNTVYLQMNSLRPEDTAVYYCHSDHYSLGVPEKRVILYGQGTLVTVSS
notes: 18G11 second round variant without R44Q (selected)

IC50 [1]: 14 nM
koff [2]: 0.0012 s⁻¹
B2: HER3MS00125 (VHH)
VHH: B1 VHH with R44Q, D61E, S62D
notes: 18G11 second round variant with R44Q

MCF (human HER2 [4]): 409
% inhibition [5]: 104%
IC50 [5]: 0.0135 nM
IC50, HRG1-β1 induced pHER3, MCF-7 (hHER3 full length [6]): 6.79e-09 M
IC50, HRG1-β1 induced pHER3, MDA-MB468 (hHER3 full length [6]): 7.94e-09 M
% competition (hHER3 full length [7]): 100%
binding result (human HER2 [8]): no binding (tested: 2000 nM)
MCF (human HER2 [9]): 84
binding result (human HER1 [10]): no binding (tested: 2000 nM)
MCF (human HER2 [11]): 229
MCF (human HER4 [12]): 149
IC50, HRG1-β1 induced pAkt, MCF-7 (hHER3 full length [13]): 2.31e-08 M
IC50, HRG1-β1 induced pERK1/2, MCF-7 (hHER3 full length [13]): 1.11e-07 M
MCF (human HER1 [14]): 107
% competition (hHER3 full length [15]): 11%
% competition (hHER3 full length [16]): 9%
IC50 pHER3, HRG1-β1 stimulated MCF7 (hHER3 full length [17]): 8.74e-09 M
EC50 [18]: 0.3 nM
IC50 [19]: 0.25 nM
binding result (human HER4 [20]): no binding (tested: 2000 nM)
MCF (human HER1 [21]): 110
binding result [22]: binds
MCF (human HER4 [23]): 225
MCF (human HER4 [24]): 263
EC50 [25]: 0.32 nM
MCF (human HER1 [26]): 74
% competition (hHER3 full length [27]): 15%
% competition (hHER3 full length [28]): 100%
IC50 (hHER3 full length [29]): 10.1 nM
Kd [30]: 0.12 nM
kon [30]: 1.8e+07 M⁻¹ s⁻¹
B3: 21F06 (VHH)
VHH: EVQLVESGGGLVQAGGSLRLSCAASGRTYYLNAMGWFRQGPGKDREFVAAIDWSDGNKDYADSVKGRFTISRDNAKNTVYLQMNSLKPEDTAVYYCAADTPPWGPMIYIESYDSWGQGTQVTVSS
notes: c-myc, His6-tagged form as expressed; also called 21F6; HER3MS21F06

IC50 pHER3, HRG1-β1 stimulated MCF7 (hHER3 full length [17]): 2.79e-09 M
IC50 [19]: 0.25 nM
B4: HER3MS00049 (VHH)
VHH: B3 VHH with A14P, G40A, D44E, A75S, K87R, Q120L
notes: 21F06 basic + G40A + D44E; also called HER3MS0049
